Measurements as given in US20090274620A1 (WILEX, published 2009).

Target: G250 antigen (MN antigen), complete protein, aa 1-459 (UniProt Q16790 38-459)
Assay: immunohistochemistry of G250-negative cells transiently transfected with the complete cDNA

B1: monoclonal antibody G250 (murine, from hybridoma DSM ACC 2526) (antibody, IgG1, V domains shown)
VH: DVKLVESGGGLVKLGGSLKLSCAASGFTFSNYYMSWVRQTPEKRLELVAAINSDGGITYYLDTVKGRFTISRDNAKNTLYLQMSSLKSEDTALFYCARHRSGYFSMDYWGQGTSVTVSS
VL: DIVMTQSQRFMSTTVGDRVSITCKASQNVVSAVAWYQQKPGQSPKLLIYSASNRYTGVPDRFTGSGSGTDFTLTISNMQSEDLADFFCQQYSNYPWTFGGGTKLEIK
notes: also called MAbG250; MabG250
- binding result: binds
